Measurements from patent US20180155451A1 (published 2018).

B1: GpH7-B3 variant I332_13S/GpL16-k0 (antibody, human IgG1, kappa)
heavy: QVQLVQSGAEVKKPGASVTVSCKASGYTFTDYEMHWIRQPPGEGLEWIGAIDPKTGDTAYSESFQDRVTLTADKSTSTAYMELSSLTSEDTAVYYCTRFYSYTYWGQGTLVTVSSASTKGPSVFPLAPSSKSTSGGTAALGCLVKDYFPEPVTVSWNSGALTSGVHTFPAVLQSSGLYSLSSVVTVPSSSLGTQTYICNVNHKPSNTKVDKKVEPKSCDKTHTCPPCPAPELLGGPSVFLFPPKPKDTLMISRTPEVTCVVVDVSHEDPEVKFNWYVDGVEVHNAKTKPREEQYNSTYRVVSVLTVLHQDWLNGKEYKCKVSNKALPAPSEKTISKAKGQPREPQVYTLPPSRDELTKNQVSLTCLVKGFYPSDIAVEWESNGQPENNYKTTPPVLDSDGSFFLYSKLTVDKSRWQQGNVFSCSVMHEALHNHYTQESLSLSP
light: DIVMTQSPLSLPVTPGEPASISCQASESLVHSNRNTYLHWYLQKPGQSPQLLIYKVSNRFSGVPDRFSGSGSGTDFTLKISRVEAEDVGVYYCSQNTHVPPTFGQGTKVEIERTVAAPSVFIFPPSDEQLKSGTASVVCLLNNFYPREAKVQWKVDNALQSGNSQESVTEQDSKDSTYSLSSTLTLSKADYEKHKVYACEVTHQGLSSPVTKSFNRGEC
notes: homodimerized IgG1, mutation in both H chains; also called Ho Ab
B2: GpH7-B3 variant K326_14T/GpL16-k0 (antibody, human IgG1, kappa)
heavy: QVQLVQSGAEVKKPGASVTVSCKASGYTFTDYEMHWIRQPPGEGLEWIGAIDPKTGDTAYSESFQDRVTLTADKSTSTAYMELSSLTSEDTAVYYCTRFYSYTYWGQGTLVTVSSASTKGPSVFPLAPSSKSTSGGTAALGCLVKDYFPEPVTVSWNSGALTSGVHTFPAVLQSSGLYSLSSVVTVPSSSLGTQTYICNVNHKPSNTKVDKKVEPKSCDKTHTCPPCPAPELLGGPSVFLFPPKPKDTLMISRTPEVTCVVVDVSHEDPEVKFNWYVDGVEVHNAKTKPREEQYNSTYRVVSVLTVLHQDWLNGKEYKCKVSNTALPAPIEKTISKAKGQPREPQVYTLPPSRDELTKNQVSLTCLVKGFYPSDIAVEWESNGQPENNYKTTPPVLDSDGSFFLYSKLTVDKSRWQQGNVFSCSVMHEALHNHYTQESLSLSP
light: DIVMTQSPLSLPVTPGEPASISCQASESLVHSNRNTYLHWYLQKPGQSPQLLIYKVSNRFSGVPDRFSGSGSGTDFTLKISRVEAEDVGVYYCSQNTHVPPTFGQGTKVEIERTVAAPSVFIFPPSDEQLKSGTASVVCLLNNFYPREAKVQWKVDNALQSGNSQESVTEQDSKDSTYSLSSTLTLSKADYEKHKVYACEVTHQGLSSPVTKSFNRGEC
notes: as for B1
B3: GpH7-B3 variant K326_03V/GpL16-k0 (antibody, human IgG1, kappa)
heavy: not shown
light: DIVMTQSPLSLPVTPGEPASISCQASESLVHSNRNTYLHWYLQKPGQSPQLLIYKVSNRFSGVPDRFSGSGSGTDFTLKISRVEAEDVGVYYCSQNTHVPPTFGQGTKVEIERTVAAPSVFIFPPSDEQLKSGTASVVCLLNNFYPREAKVQWKVDNALQSGNSQESVTEQDSKDSTYSLSSTLTLSKADYEKHKVYACEVTHQGLSSPVTKSFNRGEC
notes: as for B1
B4: GpH7-B3 variant I336_13S/GpL16-k0 (antibody, human IgG1, kappa)
heavy: not shown
light: DIVMTQSPLSLPVTPGEPASISCQASESLVHSNRNTYLHWYLQKPGQSPQLLIYKVSNRFSGVPDRFSGSGSGTDFTLKISRVEAEDVGVYYCSQNTHVPPTFGQGTKVEIERTVAAPSVFIFPPSDEQLKSGTASVVCLLNNFYPREAKVQWKVDNALQSGNSQESVTEQDSKDSTYSLSSTLTLSKADYEKHKVYACEVTHQGLSSPVTKSFNRGEC
notes: as for B1
B5: GpH7-B3 variant K326_07I/GpL16-k0 (antibody, human IgG1, kappa)
heavy: not shown
light: DIVMTQSPLSLPVTPGEPASISCQASESLVHSNRNTYLHWYLQKPGQSPQLLIYKVSNRFSGVPDRFSGSGSGTDFTLKISRVEAEDVGVYYCSQNTHVPPTFGQGTKVEIERTVAAPSVFIFPPSDEQLKSGTASVVCLLNNFYPREAKVQWKVDNALQSGNSQESVTEQDSKDSTYSLSSTLTLSKADYEKHKVYACEVTHQGLSSPVTKSFNRGEC
notes: as for B1
B6: GpH7-B3 variant I336_06M/GpL16-k0 (antibody, human IgG1, kappa)
heavy: not shown
light: DIVMTQSPLSLPVTPGEPASISCQASESLVHSNRNTYLHWYLQKPGQSPQLLIYKVSNRFSGVPDRFSGSGSGTDFTLKISRVEAEDVGVYYCSQNTHVPPTFGQGTKVEIERTVAAPSVFIFPPSDEQLKSGTASVVCLLNNFYPREAKVQWKVDNALQSGNSQESVTEQDSKDSTYSLSSTLTLSKADYEKHKVYACEVTHQGLSSPVTKSFNRGEC
notes: as for B1
B7: GpH7-B3 variant I332_15Y/GpL16-k0 (antibody, human IgG1, kappa)
heavy: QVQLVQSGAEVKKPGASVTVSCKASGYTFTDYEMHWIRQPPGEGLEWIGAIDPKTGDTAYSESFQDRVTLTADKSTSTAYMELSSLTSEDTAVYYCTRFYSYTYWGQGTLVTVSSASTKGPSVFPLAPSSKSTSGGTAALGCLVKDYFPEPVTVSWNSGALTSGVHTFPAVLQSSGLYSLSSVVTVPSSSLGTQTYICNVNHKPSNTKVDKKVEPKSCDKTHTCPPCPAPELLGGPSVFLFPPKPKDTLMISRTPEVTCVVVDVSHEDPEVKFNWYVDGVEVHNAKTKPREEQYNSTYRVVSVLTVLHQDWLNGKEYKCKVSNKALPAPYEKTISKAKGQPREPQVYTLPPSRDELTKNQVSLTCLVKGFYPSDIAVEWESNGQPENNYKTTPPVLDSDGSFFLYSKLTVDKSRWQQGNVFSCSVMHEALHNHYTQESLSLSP
light: DIVMTQSPLSLPVTPGEPASISCQASESLVHSNRNTYLHWYLQKPGQSPQLLIYKVSNRFSGVPDRFSGSGSGTDFTLKISRVEAEDVGVYYCSQNTHVPPTFGQGTKVEIERTVAAPSVFIFPPSDEQLKSGTASVVCLLNNFYPREAKVQWKVDNALQSGNSQESVTEQDSKDSTYSLSSTLTLSKADYEKHKVYACEVTHQGLSSPVTKSFNRGEC
notes: as for B1
B8: GpH7-B3 variant K326_04F/GpL16-k0 (antibody, human IgG1, kappa)
heavy: not shown
light: DIVMTQSPLSLPVTPGEPASISCQASESLVHSNRNTYLHWYLQKPGQSPQLLIYKVSNRFSGVPDRFSGSGSGTDFTLKISRVEAEDVGVYYCSQNTHVPPTFGQGTKVEIERTVAAPSVFIFPPSDEQLKSGTASVVCLLNNFYPREAKVQWKVDNALQSGNSQESVTEQDSKDSTYSLSSTLTLSKADYEKHKVYACEVTHQGLSSPVTKSFNRGEC
notes: as for B1
B9: GpH7-B3 variant I336_18N/GpL16-k0 (antibody, human IgG1, kappa)
heavy: not shown
light: DIVMTQSPLSLPVTPGEPASISCQASESLVHSNRNTYLHWYLQKPGQSPQLLIYKVSNRFSGVPDRFSGSGSGTDFTLKISRVEAEDVGVYYCSQNTHVPPTFGQGTKVEIERTVAAPSVFIFPPSDEQLKSGTASVVCLLNNFYPREAKVQWKVDNALQSGNSQESVTEQDSKDSTYSLSSTLTLSKADYEKHKVYACEVTHQGLSSPVTKSFNRGEC
notes: as for B1
B10: GpH7-B3 variant I336_10E/GpL16-k0 (antibody, human IgG1, kappa)
heavy: not shown
light: DIVMTQSPLSLPVTPGEPASISCQASESLVHSNRNTYLHWYLQKPGQSPQLLIYKVSNRFSGVPDRFSGSGSGTDFTLKISRVEAEDVGVYYCSQNTHVPPTFGQGTKVEIERTVAAPSVFIFPPSDEQLKSGTASVVCLLNNFYPREAKVQWKVDNALQSGNSQESVTEQDSKDSTYSLSSTLTLSKADYEKHKVYACEVTHQGLSSPVTKSFNRGEC
notes: as for B1
B11: GpH7-B3 variant K326_15Y/GpL16-k0 (antibody, human IgG1, kappa)
heavy: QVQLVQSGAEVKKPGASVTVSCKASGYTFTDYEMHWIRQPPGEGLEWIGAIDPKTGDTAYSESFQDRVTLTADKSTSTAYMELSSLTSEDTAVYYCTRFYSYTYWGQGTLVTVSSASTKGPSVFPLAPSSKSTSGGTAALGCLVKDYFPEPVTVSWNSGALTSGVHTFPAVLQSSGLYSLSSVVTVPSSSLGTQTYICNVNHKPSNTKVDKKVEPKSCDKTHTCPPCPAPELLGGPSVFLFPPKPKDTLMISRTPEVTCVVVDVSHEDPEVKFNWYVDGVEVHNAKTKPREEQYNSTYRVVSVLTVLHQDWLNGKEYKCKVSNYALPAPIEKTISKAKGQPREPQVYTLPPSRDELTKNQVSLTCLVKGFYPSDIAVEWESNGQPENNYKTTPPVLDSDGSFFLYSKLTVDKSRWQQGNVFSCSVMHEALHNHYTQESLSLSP
light: DIVMTQSPLSLPVTPGEPASISCQASESLVHSNRNTYLHWYLQKPGQSPQLLIYKVSNRFSGVPDRFSGSGSGTDFTLKISRVEAEDVGVYYCSQNTHVPPTFGQGTKVEIERTVAAPSVFIFPPSDEQLKSGTASVVCLLNNFYPREAKVQWKVDNALQSGNSQESVTEQDSKDSTYSLSSTLTLSKADYEKHKVYACEVTHQGLSSPVTKSFNRGEC
notes: as for B1
B12: GpH7-B3 variant I332_14T/GpL16-k0 (antibody, human IgG1, kappa)
heavy: not shown
light: DIVMTQSPLSLPVTPGEPASISCQASESLVHSNRNTYLHWYLQKPGQSPQLLIYKVSNRFSGVPDRFSGSGSGTDFTLKISRVEAEDVGVYYCSQNTHVPPTFGQGTKVEIERTVAAPSVFIFPPSDEQLKSGTASVVCLLNNFYPREAKVQWKVDNALQSGNSQESVTEQDSKDSTYSLSSTLTLSKADYEKHKVYACEVTHQGLSSPVTKSFNRGEC
notes: as for B1
B13: GpH7-B3 variant I336_02A/GpL16-k0 (antibody, human IgG1, kappa)
heavy: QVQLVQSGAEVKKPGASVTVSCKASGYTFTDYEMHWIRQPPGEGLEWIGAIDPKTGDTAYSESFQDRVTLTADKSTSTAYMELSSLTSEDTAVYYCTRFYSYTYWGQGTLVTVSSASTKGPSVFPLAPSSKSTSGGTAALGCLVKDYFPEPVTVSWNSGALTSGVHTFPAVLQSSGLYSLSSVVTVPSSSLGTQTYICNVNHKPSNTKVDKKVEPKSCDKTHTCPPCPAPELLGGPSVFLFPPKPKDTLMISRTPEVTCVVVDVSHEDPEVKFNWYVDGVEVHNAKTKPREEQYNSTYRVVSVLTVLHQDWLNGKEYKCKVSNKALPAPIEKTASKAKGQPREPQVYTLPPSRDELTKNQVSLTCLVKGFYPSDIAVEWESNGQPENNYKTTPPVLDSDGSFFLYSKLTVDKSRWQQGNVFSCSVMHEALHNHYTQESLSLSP
light: DIVMTQSPLSLPVTPGEPASISCQASESLVHSNRNTYLHWYLQKPGQSPQLLIYKVSNRFSGVPDRFSGSGSGTDFTLKISRVEAEDVGVYYCSQNTHVPPTFGQGTKVEIERTVAAPSVFIFPPSDEQLKSGTASVVCLLNNFYPREAKVQWKVDNALQSGNSQESVTEQDSKDSTYSLSSTLTLSKADYEKHKVYACEVTHQGLSSPVTKSFNRGEC
notes: as for B1
B14: GpH7-B3 variant K326_06M/GpL16-k0 (antibody, human IgG1, kappa)
heavy: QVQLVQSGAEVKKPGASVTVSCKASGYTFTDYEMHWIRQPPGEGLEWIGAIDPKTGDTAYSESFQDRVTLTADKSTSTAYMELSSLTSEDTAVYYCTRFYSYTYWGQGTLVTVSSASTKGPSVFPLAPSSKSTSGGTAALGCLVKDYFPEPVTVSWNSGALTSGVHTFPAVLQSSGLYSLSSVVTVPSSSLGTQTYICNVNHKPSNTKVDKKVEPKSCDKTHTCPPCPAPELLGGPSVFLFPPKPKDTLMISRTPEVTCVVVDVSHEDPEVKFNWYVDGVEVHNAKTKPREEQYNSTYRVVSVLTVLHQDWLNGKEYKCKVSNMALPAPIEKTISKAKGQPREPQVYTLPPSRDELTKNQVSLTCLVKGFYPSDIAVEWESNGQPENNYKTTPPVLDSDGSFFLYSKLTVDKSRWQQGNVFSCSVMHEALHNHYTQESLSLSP
light: DIVMTQSPLSLPVTPGEPASISCQASESLVHSNRNTYLHWYLQKPGQSPQLLIYKVSNRFSGVPDRFSGSGSGTDFTLKISRVEAEDVGVYYCSQNTHVPPTFGQGTKVEIERTVAAPSVFIFPPSDEQLKSGTASVVCLLNNFYPREAKVQWKVDNALQSGNSQESVTEQDSKDSTYSLSSTLTLSKADYEKHKVYACEVTHQGLSSPVTKSFNRGEC
notes: as for B1
B15: GpH7-B3 variant K326_08L/GpL16-k0 (antibody, human IgG1, kappa)
heavy: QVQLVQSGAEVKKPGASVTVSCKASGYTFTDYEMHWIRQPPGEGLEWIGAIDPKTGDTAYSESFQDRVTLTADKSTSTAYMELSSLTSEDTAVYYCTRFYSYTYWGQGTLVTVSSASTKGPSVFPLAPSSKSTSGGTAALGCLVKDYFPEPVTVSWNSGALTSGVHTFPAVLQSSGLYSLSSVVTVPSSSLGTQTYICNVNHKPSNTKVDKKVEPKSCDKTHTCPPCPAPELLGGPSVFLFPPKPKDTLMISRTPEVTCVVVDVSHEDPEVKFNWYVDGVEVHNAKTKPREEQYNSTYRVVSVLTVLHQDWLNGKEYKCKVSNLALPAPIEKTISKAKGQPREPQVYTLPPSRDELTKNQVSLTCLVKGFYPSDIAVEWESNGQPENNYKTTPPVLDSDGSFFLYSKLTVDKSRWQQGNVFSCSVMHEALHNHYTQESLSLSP
light: DIVMTQSPLSLPVTPGEPASISCQASESLVHSNRNTYLHWYLQKPGQSPQLLIYKVSNRFSGVPDRFSGSGSGTDFTLKISRVEAEDVGVYYCSQNTHVPPTFGQGTKVEIERTVAAPSVFIFPPSDEQLKSGTASVVCLLNNFYPREAKVQWKVDNALQSGNSQESVTEQDSKDSTYSLSSTLTLSKADYEKHKVYACEVTHQGLSSPVTKSFNRGEC
notes: as for B1
B16: GpH7-B3 variant I332_19Q/GpL16-k0 (antibody, human IgG1, kappa)
heavy: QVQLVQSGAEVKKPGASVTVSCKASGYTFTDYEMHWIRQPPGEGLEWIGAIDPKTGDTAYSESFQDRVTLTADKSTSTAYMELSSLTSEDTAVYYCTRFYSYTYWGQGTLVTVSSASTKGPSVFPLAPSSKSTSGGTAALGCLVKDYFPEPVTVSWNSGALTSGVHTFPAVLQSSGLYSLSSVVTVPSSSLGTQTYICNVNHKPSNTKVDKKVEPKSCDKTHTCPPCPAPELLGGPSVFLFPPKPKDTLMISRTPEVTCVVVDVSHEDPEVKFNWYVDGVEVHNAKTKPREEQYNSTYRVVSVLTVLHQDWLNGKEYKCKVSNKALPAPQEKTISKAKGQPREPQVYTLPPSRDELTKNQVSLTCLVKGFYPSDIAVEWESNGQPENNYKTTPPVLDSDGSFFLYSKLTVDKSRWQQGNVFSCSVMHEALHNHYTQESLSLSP
light: DIVMTQSPLSLPVTPGEPASISCQASESLVHSNRNTYLHWYLQKPGQSPQLLIYKVSNRFSGVPDRFSGSGSGTDFTLKISRVEAEDVGVYYCSQNTHVPPTFGQGTKVEIERTVAAPSVFIFPPSDEQLKSGTASVVCLLNNFYPREAKVQWKVDNALQSGNSQESVTEQDSKDSTYSLSSTLTLSKADYEKHKVYACEVTHQGLSSPVTKSFNRGEC
notes: as for B1
B17: GpH7-B3 variant K326_09D/GpL16-k0 (antibody, human IgG1, kappa)
heavy: not shown
light: DIVMTQSPLSLPVTPGEPASISCQASESLVHSNRNTYLHWYLQKPGQSPQLLIYKVSNRFSGVPDRFSGSGSGTDFTLKISRVEAEDVGVYYCSQNTHVPPTFGQGTKVEIERTVAAPSVFIFPPSDEQLKSGTASVVCLLNNFYPREAKVQWKVDNALQSGNSQESVTEQDSKDSTYSLSSTLTLSKADYEKHKVYACEVTHQGLSSPVTKSFNRGEC
notes: as for B1
B18: GpH7-B3 variant I336_03V/GpL16-k0 (antibody, human IgG1, kappa)
heavy: not shown
light: DIVMTQSPLSLPVTPGEPASISCQASESLVHSNRNTYLHWYLQKPGQSPQLLIYKVSNRFSGVPDRFSGSGSGTDFTLKISRVEAEDVGVYYCSQNTHVPPTFGQGTKVEIERTVAAPSVFIFPPSDEQLKSGTASVVCLLNNFYPREAKVQWKVDNALQSGNSQESVTEQDSKDSTYSLSSTLTLSKADYEKHKVYACEVTHQGLSSPVTKSFNRGEC
notes: as for B1
B19: GpH7-B3 variant I336_14T/GpL16-k0 (antibody, human IgG1, kappa)
heavy: not shown
light: DIVMTQSPLSLPVTPGEPASISCQASESLVHSNRNTYLHWYLQKPGQSPQLLIYKVSNRFSGVPDRFSGSGSGTDFTLKISRVEAEDVGVYYCSQNTHVPPTFGQGTKVEIERTVAAPSVFIFPPSDEQLKSGTASVVCLLNNFYPREAKVQWKVDNALQSGNSQESVTEQDSKDSTYSLSSTLTLSKADYEKHKVYACEVTHQGLSSPVTKSFNRGEC
notes: as for B1
B20: GpH7-B3 variant K326_10E/GpL16-k0 (antibody, human IgG1, kappa)
heavy: not shown
light: DIVMTQSPLSLPVTPGEPASISCQASESLVHSNRNTYLHWYLQKPGQSPQLLIYKVSNRFSGVPDRFSGSGSGTDFTLKISRVEAEDVGVYYCSQNTHVPPTFGQGTKVEIERTVAAPSVFIFPPSDEQLKSGTASVVCLLNNFYPREAKVQWKVDNALQSGNSQESVTEQDSKDSTYSLSSTLTLSKADYEKHKVYACEVTHQGLSSPVTKSFNRGEC
notes: as for B1
B21: GpH7-B3 variant K326_19Q/GpL16-k0 (antibody, human IgG1, kappa)
heavy: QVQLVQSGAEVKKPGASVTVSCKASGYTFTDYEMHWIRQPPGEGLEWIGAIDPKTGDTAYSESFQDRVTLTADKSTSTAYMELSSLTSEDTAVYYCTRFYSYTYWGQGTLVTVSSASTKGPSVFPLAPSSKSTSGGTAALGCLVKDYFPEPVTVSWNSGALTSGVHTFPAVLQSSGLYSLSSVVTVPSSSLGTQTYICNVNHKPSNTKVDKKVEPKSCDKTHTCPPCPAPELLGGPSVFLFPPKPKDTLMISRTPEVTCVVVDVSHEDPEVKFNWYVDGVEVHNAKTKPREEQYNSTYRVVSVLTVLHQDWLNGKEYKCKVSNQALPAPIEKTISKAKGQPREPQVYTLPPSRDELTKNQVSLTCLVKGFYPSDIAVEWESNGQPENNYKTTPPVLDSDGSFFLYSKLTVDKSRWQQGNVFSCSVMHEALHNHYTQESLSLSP
light: DIVMTQSPLSLPVTPGEPASISCQASESLVHSNRNTYLHWYLQKPGQSPQLLIYKVSNRFSGVPDRFSGSGSGTDFTLKISRVEAEDVGVYYCSQNTHVPPTFGQGTKVEIERTVAAPSVFIFPPSDEQLKSGTASVVCLLNNFYPREAKVQWKVDNALQSGNSQESVTEQDSKDSTYSLSSTLTLSKADYEKHKVYACEVTHQGLSSPVTKSFNRGEC
notes: as for B1
B22: GpH7-B3 variant I336_09D/GpL16-k0 (antibody, human IgG1, kappa)
heavy: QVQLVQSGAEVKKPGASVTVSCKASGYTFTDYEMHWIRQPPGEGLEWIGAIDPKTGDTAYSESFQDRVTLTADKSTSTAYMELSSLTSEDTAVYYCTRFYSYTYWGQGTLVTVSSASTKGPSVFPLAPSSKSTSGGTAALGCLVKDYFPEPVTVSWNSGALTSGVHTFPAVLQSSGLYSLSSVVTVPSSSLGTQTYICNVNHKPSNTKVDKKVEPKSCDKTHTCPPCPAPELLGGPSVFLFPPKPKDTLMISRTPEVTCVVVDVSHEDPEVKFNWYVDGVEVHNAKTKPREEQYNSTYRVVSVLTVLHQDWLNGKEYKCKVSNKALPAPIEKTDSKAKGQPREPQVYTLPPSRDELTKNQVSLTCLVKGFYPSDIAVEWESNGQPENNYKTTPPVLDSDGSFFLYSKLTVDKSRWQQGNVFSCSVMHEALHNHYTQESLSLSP
light: DIVMTQSPLSLPVTPGEPASISCQASESLVHSNRNTYLHWYLQKPGQSPQLLIYKVSNRFSGVPDRFSGSGSGTDFTLKISRVEAEDVGVYYCSQNTHVPPTFGQGTKVEIERTVAAPSVFIFPPSDEQLKSGTASVVCLLNNFYPREAKVQWKVDNALQSGNSQESVTEQDSKDSTYSLSSTLTLSKADYEKHKVYACEVTHQGLSSPVTKSFNRGEC
notes: as for B1

Target: T1, FcγRIIIa extracellular domain with C-terminal His tag (human, UniProt P08637 17-208)
T1 construct: extracellular domain; also called FcgRIIIa; 3a
T1 sequence (P08637 17-208): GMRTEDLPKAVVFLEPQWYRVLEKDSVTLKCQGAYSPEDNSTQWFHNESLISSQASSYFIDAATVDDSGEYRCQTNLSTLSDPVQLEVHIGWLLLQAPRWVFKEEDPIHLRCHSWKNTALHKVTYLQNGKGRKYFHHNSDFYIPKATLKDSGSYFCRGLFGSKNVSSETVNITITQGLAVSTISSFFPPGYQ
Assay: SPR, relative to GpH7-B3/GpL16-k0

Binder | Ho/Con_3a
B1 | 112 % of control (=100)
B2 | 147 % of control (=100)
B3 | 137 % of control (=100)
B4 | 119 % of control (=100)
B5 | 134 % of control (=100)
B6 | 107 % of control (=100)
B7 | 106 % of control (=100)
B8 | 103 % of control (=100)
B9 | 101 % of control (=100)
B10 | 130 % of control (=100)
B11 | 115 % of control (=100)
B12 | 138 % of control (=100)
B13 | 104 % of control (=100)
B14 | 129 % of control (=100)
B15 | 114 % of control (=100)
B16 | 118 % of control (=100)
B17 | 163 % of control (=100)
B18 | 110 % of control (=100)
B19 | 123 % of control (=100)
B20 | 157 % of control (=100)
B21 | 118 % of control (=100)
B22 | 111 % of control (=100)
